These results are taken from patent publication US20160176970A1 (published 2016).

The target of this assay is T1, pig α2β1 integrin (pig, UniProt F1SMF4 28-1178; Q9GLP0 21-798).
T1 construct: whole, on cells; Tested with whole blood
In words: FACS on whole blood, PE-coupled goat anti-mouse IgG.

B1: anti-α2 integrin mAb purified from hybridoma supernatant (murine) (antibody, mouse IgG2a, kappa)
light: NIVLTQSPASLAVSLGQRATISCRASESVESYGNSFIYWYQQKPGQAPKLLIYLASNLASGVPARFSGSGSRTDFTLTIDPVEADDAATYYCQQNNEDPYTFGGGTKLEIKRADAAPTVSIFPPSSEQLTSGGASVVCFLNNFYPKDINVKWKIDGSERQNGVLNSWTDQDSKDSTYSMSSTLTLTKDEYERHNSYTCEATHKTSTSPIVKSFNRNEC
heavy: QVQLHQPGAELVKPGAPVKLSCKASGYTFTSYWMNWVKQRPGRGLEWIGRIDPSDSETHYNQKFKDKATLTVDKSSSTAYIQLSSLTSEDSAVYYCAKVGRGYFDYWGQGTTLTVSSAKTTAPSVYPLAPVCGDTTGSSVTLGCLVKGYFPEPVTLTWNSGSLSSGVHTFPAVLQSDLYTLSSSVTVTSSTWPSQSITCNVAHPASSTKVDKKIEPRGPTIKPCPPCKCPAPNLLGGPSVFIFPPKIKDVLMISLSPIVTCVVVDVSEDDPDVQISWFVNNVEVHTAQTQTHREDYNSTLRVVSALPIQHQDWMSGKEFKCKVNNKDLPAPIERTISKPKGSVRAPQVYVLPPPEEEMTKKQVTLTCMVTDFMPEDIYVEWTNNGKTELNYKNTEPVLDSDGSYFMYSKLRVEKKNWVERNSYSCSVVHEGLHNHHTTKSFSRTPGK
notes: also called α2 mAb from hybridoma supernatant; anti-α2 integrin monoclonal mouse antibody
For the molecule B1, the binding result is given as “no binding”.
